From paper PMC6754456, “A processive endoglucanase with multi-substrate specificity is characterized from porcine gut microbiota” (Scientific Reports, 2019)

System: O=[N+]([O-])c1ccc(O[C@@H]2O[C@H](CO)[C@@H](O[C@@H]3O[C@H](CO)[C@@H](O)[C@H](O)[C@H]3O)[C@H](O)[C@H]2O)cc1
Assay: purified protein
Conditions: 100 mM MES pH 6.0, 50 °C, 10 min

## p4818Cel5_2A (uncultured bacterium)
  Km: 1.2 ± 0.1 mM
  kcat: 1.63 ± 0.0583 s⁻¹
  kcat/Km: 1350 M⁻¹ s⁻¹
